Results as given in patent publication US20170248602A1 (ALLERGAN, published 2017).
Positions count from the first letter of the chain named.

B1: α-SNAP-25 mouse monoclonal antibody 1D3B8 (antibody, V domains shown)
VH: QVKLQESGAELVKPGASVKISCKASGYIFTDHALHWVRQKPEQGLEWIGYIFPGNGNIEYNEKFKGKATLTADKSSSTAYMQLNSLTSGDSAMYFCKKMDYWGQGTTVTVSS
VL: DVLMTQTPLSLPVSLGDQASISCRSSQSIVHSNGNTYLEWYLQKPGQSPKLLIYKVSNRFSGVPDRFSGSGSGTDFTLKISRVEAEDLGVYYCFQGSHVPPTFGAGTKLELKR
B2: α-SNAP-25 mouse monoclonal antibody 2E2A6 (antibody, V domains shown)
VH: QVQLQQSDAELVKPGASVKISCRASGYTFTDHSIHWVKQQPGQGLEWIGYIFPGNGNIEYNDKFKGKATLTADKSSGTAYMQLNSLTSEDSAVYFCKRMGYWGQGTSVTVSS
VL: DVLMTQTPLTLSVTIGQPASISCKSSQSLLYTNGKTYLTWLFQRPGQSPKRLIYLVSELDSGVPDRFSGSGSGTDFTLEITRVEAEDLGVYYCLQSAHFPFTFGSGTKLEIKR
B3: α-SNAP-25 mouse monoclonal antibody 3C1A5 (antibody, V domains shown)
VH: QVKLQESGAELVKPGASVKISCKASGYTFTDHSIHWVKQKPGQGLEWIGYLFPGNGNFEYNEKFKGKATLTADKSSSTVYMYLNSLTSEDSAVYFCKRMGYWGQGTTVTVSS
VL: B2 VL with L3V, Y31N, F42I, K50Q, E58K, E79K, T81S, A97S

Molecular target: T1, SNAP-25206 uncleaved substrate in PC12 cells (rat (PC12 cells), UniProt P60881 1-206)
T1 construct: also called uncleaved SNAP-25
Assay: cell-based assay: Western blot of PC12 lysates, ascites 1:100

T1 sequence (P60881 whole entry): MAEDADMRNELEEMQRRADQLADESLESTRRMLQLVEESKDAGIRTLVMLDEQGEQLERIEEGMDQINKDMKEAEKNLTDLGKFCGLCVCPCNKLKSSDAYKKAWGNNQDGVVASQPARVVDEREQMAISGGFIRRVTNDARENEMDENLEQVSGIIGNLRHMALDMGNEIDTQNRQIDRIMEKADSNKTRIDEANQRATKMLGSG

Binder	binding result
B1	no binding
B2	no binding
B3	no binding
